Assay [1] addresses CD3 on human CD8+ T cells. Kind of assay: flow cytometry titration, MFI against [IgG] nM; cells not named on this panel, the value and the curve are those of the CD8+ T-Cell curve of FIG. 12F.
In assay [2] the target is CD3 on human CD8+ T cells. The assay can be described thus: flow cytometry titration, RL1-H MFI against [IgG] nM; cells not named on this panel, the points are those of the CD8+ T-Cell curves of FIGS. 12E-12G. A general note: Flow cytometry measures light scatter and fluorescence of single cells or particles in a stream.
Assay [3] has as its target CD3 on human CD8+ T cells. Kind of assay: flow cytometry titration on CD8+ T cells, MFI against [IgG] nM.
The target of the next assay is CD3 on Jurkat cells. Kind of assay: flow cytometry titration on Jurkat cells, MFI against [IgG] nM.
Assay [4] concerns the target cyno CD3 epsilon (cyno (cynomolgus monkey)) (UniProt Q95LI5). The assay can be described thus: sensorgrams with fits, Response (RLU) against Time (s); instrument not named; species not printed on the panel: cyno by the order of the panels (11I-11K human, 11L-11N cyno, after the text's 67 nM and 107 nM).
Assay [5] concerns the target T1, human CD3 epsilon (human, UniProt P07766 23-126, limits assumed).
T1 construct: Used as a soluble protein target in panning; the construct is not described; also called hCD3; hCD3 epsilon
Kind of assay: sensorgrams with fits, Response (RLU) against Time (s); instrument not named; species not printed on the panel: human by the order of the panels (11I-11K human, 11L-11N cyno, after the text's 67 nM and 107 nM).

The target of assay [6] is T2, cyno CD3 epsilon (cyno (cynomolgus monkey), UniProt Q95LI5 22-117, limits assumed).
T2 construct: Used as a soluble protein target in panning; the construct is not described; also called cCD3; cCD3 epsilon
T2 sequence (looked up): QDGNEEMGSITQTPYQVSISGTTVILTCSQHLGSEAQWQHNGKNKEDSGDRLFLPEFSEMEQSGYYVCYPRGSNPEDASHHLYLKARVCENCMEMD
The assay can be described thus: flow cytometry on Expi293 cells overexpressing cynoCD3e, antibody at 100 nM; bar = MFI ratio (OE/parent).

Assay [7] addresses T1, human CD3 epsilon. Kind of assay: flow cytometry on Expi293 cells overexpressing hCD3e, antibody at 100 nM; bar = MFI ratio (OE/parent), 1 = parent cells.
In assay [8] the target is T2, cyno CD3 epsilon. The assay can be described thus: sensorgrams with fits, Response (RLU) against Time (s); instrument not named; panel shaded grey; species not printed on the panel: cyno by the order of the panels (11I-11K human, 11L-11N cyno, after the text's 67 nM and 107 nM).
In assay [9] the target is T1, human CD3 epsilon. The assay can be described thus: method not stated; human CD3 epsilon.

The text below walks through data of patent US20220348659A1 (TWIST BIOSCIENCE, published 2022).

Bounds are passed on as bounds.

As usually defined, the EC50 is the concentration giving half of the maximal effect. What is called EC50 (read off the curve) is the concentration at which the effect is half-maximal. High values mean a less potent agent, low ones a more potent agent. For orientation: Kd means the free concentration of one partner at which half of the binding sites on the other are occupied at equilibrium, for simple one-to-one binding. A lower Kd goes with higher affinity.

T1 sequence (P07766 23-126 limits assumed): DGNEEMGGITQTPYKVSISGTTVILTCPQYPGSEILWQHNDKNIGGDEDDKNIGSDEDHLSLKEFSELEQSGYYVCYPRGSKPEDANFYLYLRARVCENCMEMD
Sequence of CD3 on human CD8+ T cells (chain, as listed by the source limits assumed): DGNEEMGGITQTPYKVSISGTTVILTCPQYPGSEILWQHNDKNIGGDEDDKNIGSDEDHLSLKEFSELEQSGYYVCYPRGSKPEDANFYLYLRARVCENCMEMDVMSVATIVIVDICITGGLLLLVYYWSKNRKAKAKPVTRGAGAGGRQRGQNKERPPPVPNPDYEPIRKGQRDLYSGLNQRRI

In the case of R&D MAB100 (antibody), the figures for the concentration giving a half-maximal response (EC50) (in [1]; in assay [3]; in the assay with CD3 on Jurkat cells) were 3.05 nM, 3.05 nM and 0.537 nM, respectively. Moreover, the EC50 (read off the curve) in assay [2] turned out to be 3 nM.
As to muSP34 (antibody), the dissociation constant Kd was 38 nM in assay [4] and below 0.0019 nM with human CD3 epsilon [5].

B1: CD3-252-29 (VHH)
VHH: EVQLVESGGGLVQPGGSLRLSCAASGTTFRINVMGWFRQAPGKEREFVAAITSSGSSTLYADSVKGRFTISADNSKNTAYLQMNSLKPEDTAVYYCARGGGYHRLWGQGTLVTVSS
notes: also called CD3-252-029
Turning to B1, the values for the binding result with cyno CD3 epsilon [6] and with human CD3 epsilon [7] were “no binding (tested: 100 nM)” and “binds”, respectively.

B2: CD3-252-22 (VHH)
VHH: EVQLVESGGGLVQPGGSLRLSCAASGNIFTRHIMGWFRQAPGKEREFVAAITNGGSTKYADSVKGRFTISADNSKNTAYLQMNSLKPEDTAVYYCARQDYYDSSGHIRYWGQGTLVTVSS
notes: also called CD3-252-022
In the case of B2, the binding result with human CD3 epsilon [7] was “binds”.

B3: CD3-252-24 (VHH)
VHH: EVQLVESGGGLVQPGGSLRLSCAASGITFKRYVMGWFRQAPGKEREFVAAITNGGSTKYADSVKGRFTISADNSKNTAYLQMNSLKPEDTAVYYCARDLSAGPGKAVYWGQGTLVTVSS
notes: also called CD3-252-024
As for B3, the binding result is listed as “no binding (tested: 100 nM)” in the assay with cyno CD3 epsilon [6] and “binds” with human CD3 epsilon [7].

B4: CD3-252-10 (VHH)
VHH: EVQLVESGGGLVQPGGSLRLSCAASGRSLYDRAYVMGWFRQAPGKEREFVAAINRSGSALYADSVKGRFTISADNSKNTAYLQMNSLKPEDTAVYYCAAKAVTSRDHEWGQGTLVTVSS
notes: also called CD3-252-010
Take B4: the values for the binding result with cyno CD3 epsilon [6] and with human CD3 epsilon [7] were “no binding (tested: 100 nM)” and “binds”, respectively.

B5: CD3-56-11 (antibody, V domains shown)
VH: EVQLLESGGGLVQPGGSLRLSCAASGFRFSTYAMNWVRQAPGKGLEWVSGISGSGGSKYHADSVKGRFTISRDNSKNTLYLQMNSLRAEDTAVYYCARDSLTTRGYYYYMDVWGQGTLVTVSS
VL: DIQMTQSQSSLSASVGDRVTITCRASQSIRTSLNWYQQKPGKAPKLLIYAASRLQSGVPSRFSGSGSGTDFTLTISSLQPEDFATYYCQQSYSTLYSFGGGTKVEIK
In the case of B5, the Kd was found to be 162000 nM in the assay with cyno CD3 epsilon [8] and 130 nM with human CD3 epsilon [5].

B6: CD3-56-05 (antibody, V domains shown)
VH: EVQLLESGGGLVQPGGSLRLSCAASGFTFSSYAMNWVRQAPGKGLEWVSAVSGSGGRTYYADSVKGRFTISRDNSKNTLYLQMNSLRAEDTAVYYCARERATTLDYWGQGTLVTVSS
VL: DIQMTQSPSSLSASVGDRVTITCRASQTIYSHLNWYQQKPGKAPKLLIYVASRLQSGVPSRFSGSGSGTDFTLTISSLQPEDFATYYCQQSFSTSWTFGGGTKVEIK
notes: the text speaks of CD3 epsilon IgGs from a Fab library on the DP47 framework; also called CD3-56-5; CD-3-56-5
B6 showed an equilibrium dissociation constant (Kd) with human CD3 epsilon [9] of 67 nM.

B7: CD3-252-5 (VHH)
VHH: EVQLVESGGGLVQPGGSLRLSCAASGRISNINIMGWFRQAPGKEREFVAAISWNSGTTRYADSVKGRFTISADNSKNTAYLQMNSLKPEDTAVYYCASQGPGLYGSGSYLRYWGQGTLVTVSS
notes: also called CD3-252-005
For the molecule B7, the figures for the binding result with cyno CD3 epsilon [6] and with human CD3 epsilon [7] were “no binding (tested: 100 nM)” and “binds”, respectively.
